Source: article PMC11661312, “The identification of XPR1 as a voltage- and phosphate-activated phosphate-permeable ion channel” (Research Square, 2024)

Biological target: the molecule itself
Assay: cryo-EM structure; purified hXPR1 at 10 to 20 mg/mL in GDN/LMNG/CHS detergent mixture; apo: 20 mM Tris pH 7.4, 150 mM NaCl (C1 symmetry); also with 25 mM sodium phosphate, 150 mM NaCl, 1 mM phytic acid (InsP6) pH 7.4 (C2 symmetry imposed)

B1: human Xenotropic and Polytropic retrovirus Receptor 1 (hXPR1) (natural protein, UniProt Q9UBH6 1-696, looked up)
chain: MKFAEHLSAHITPEWRKQYIQYEAFKDMLYSAQDQAPSVEVTDEDTVKRYFAKFEEKFFQTCEKELAKINTFYSEKLAEAQRRFATLQNELQSSLDAQKESTGVTTLRQRRKPVFHLSHEERVQHRNIKDLKLAFSEFYLSLILLQNYQNLNFTGFRKILKKHDKILETSRGADWRVAHVEVAPFYTCKKINQLISETEAVVTNELEDGDRQKAMKRLRVPPLGAAQPAPAWTTFRVGLFCGIFIVLNITLVLAAVFKLETDRSIWPLIRIYRGGFLLIEFLFLLGINTYGWRQAGVNHVLIFELNPRSNLSHQHLFEIAGFLGILWCLSLLACFFAPISVIPTYVYPLALYGFMVFFLINPTKTFYYKSRFWLLKLLFRVFTAPFHKVGFADFWLADQLNSLSVILMDLEYMICFYSLELKWDESKGLLPNNSEESGICHKYTYGVRAIVQCIPAWLRFIQCLRRYRDTKRAFPHLVNAGKYSTTFFMVTFAALYSTHKERGHSDTMVFFYLWIVFYIISSCYTLIWDLKMDWGLFDKNAGENTFLREEIVYPQKAYYYCAIIEDVILRFAWTIQISITSTTLLPHSGDIIATVFAPLEVFRRFVWNFFRLENEHLNNCGEFRAVRDISVAPLNADDQTLLEQMMDQDDGVRNRQKNRSWKYNQSISLRRPRLASQSKARDTKVLIEDTDDEANT
notes: Xenotropic and Polytropic retrovirus Receptor 1 (XPR1), human, Uniprot Q9UBH6, full length; cDNA synthesized with a C-terminal Strep-tag II; Homodimer in the detergent mixture (GDN/LMNG/CHS) by cryo-EM; also called SLC53a1; apo-hXPR1
  stoichiometry N: 2
